{"source": "paper PMC4772808", "about": "“Insights from the reconstitution of the divergent outer kinetochore of Drosophila melanogaster” (Open Biology, 2016)", "binders": {"B1": {"name": "Spc105R^1707–1960 (domain or fragment, Drosophila melanogaster, UniProt M9PIC9 1707-1960, looked up)", "chain": "SMEQTRVEEEATKWNKAALLEMCKLRTEEKDIAMPPESFFTRLKRLLTEQQPNWIFDYQRKVSQQMIFYNRQLTTIRIVVNYQIEDLVEESTISVCSIQLDNDVPTPKDQWSSREHFLNFHLSLRLPMNPSDEIEGSDETAFLKFLNGIDRRIAEVKQKLHKVLDLLAQKRARLTREANRTIVRKIVRKCIDQEPIVRLEKITFLIEIGNIEDVSFTDILRPELHLFNENIQYLPKGIPFLEAFLTDPEQYLRK", "notes": "Soluble only when co-expressed with the Mis12a or Mis12b complex"}, "B2": {"name": "DmCENP-C^1–105 (domain or fragment, Drosophila melanogaster, UniProt Q9VHP9 1-105, looked up)", "chain": "MSKPQNNDTLELDDILSQPVKDKERFAAFMMRKLAENKPAQNDNLFGNFKLDFDLDFEVPLIKKSQAKPKSKLPEVQPLGELVSKNSAATEKVNEPPVDQAPNEN", "notes": "source: E. coli BL21(DE3) Rosetta, purified (His-Trap, ResourceQ, Superdex 200)"}}, "assay_in_all_cases": "AUC; sedimentation velocity, 42 000 rpm, 20°C, 20 mM Tris pH 8, 0.15 M NaCl, 1 mM TCEP, absorbance at 280 nm, c(S) analysis with SEDFIT", "settings_in_all_cases": "both partners purified", "key": {"[1]": {"biological_target": "T1, DmMis12a complex (Mis12:Nnf1a:Kmn1) (Drosophila melanogaster, UniProt Q9VS01 1-181; Q7JZC9 1-194; Q9VYX4 1-183)", "T1 construct": "Mis12 subunit of the Drosophila melanogaster Mis12 complex; Nnf1a (Nnf1R-1), Drosophila melanogaster; Kmn1, the Nsl1 orthologue of Drosophila melanogaster; source: E. coli BL21(DE3) Rosetta, co-expressed (pST44), purified (His-Trap, ResourceQ, Superdex 200); copies: 1 + 1 + 1", "T1 sequence (looked up) 1": "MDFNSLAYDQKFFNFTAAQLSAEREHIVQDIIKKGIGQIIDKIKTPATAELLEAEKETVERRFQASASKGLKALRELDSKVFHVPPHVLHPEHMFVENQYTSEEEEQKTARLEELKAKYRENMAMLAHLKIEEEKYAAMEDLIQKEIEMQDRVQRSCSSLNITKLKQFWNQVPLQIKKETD", "T1 sequence (looked up) 2": "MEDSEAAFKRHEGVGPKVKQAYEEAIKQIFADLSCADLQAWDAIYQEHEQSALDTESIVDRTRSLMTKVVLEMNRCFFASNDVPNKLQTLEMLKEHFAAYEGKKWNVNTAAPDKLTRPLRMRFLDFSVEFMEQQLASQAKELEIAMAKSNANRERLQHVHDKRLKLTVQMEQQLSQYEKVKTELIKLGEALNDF", "T1 sequence (looked up) 3": "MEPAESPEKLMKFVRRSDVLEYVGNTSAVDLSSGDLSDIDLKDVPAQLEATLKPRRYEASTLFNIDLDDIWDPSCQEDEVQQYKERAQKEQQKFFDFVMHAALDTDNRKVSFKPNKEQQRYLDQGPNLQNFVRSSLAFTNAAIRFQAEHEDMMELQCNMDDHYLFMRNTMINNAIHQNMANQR"}, "[2]": {"biological_target": "T2, DmMis12b complex (Mis12:Nnf1b:Kmn1) (Drosophila melanogaster, UniProt Q9VS01 1-181; Q8IPW3 1-204; Q9VYX4 1-183)", "T2 construct": "Mis12 subunit of the Drosophila melanogaster Mis12 complex; Nnf1b (Nnf1R-2), Drosophila melanogaster; Kmn1, the Nsl1 orthologue of Drosophila melanogaster; source: E. coli BL21(DE3) Rosetta, co-expressed (pST44), purified (His-Trap, ResourceQ, Superdex 200); copies: 1 + 1 + 1", "T2 sequence (looked up) 1": "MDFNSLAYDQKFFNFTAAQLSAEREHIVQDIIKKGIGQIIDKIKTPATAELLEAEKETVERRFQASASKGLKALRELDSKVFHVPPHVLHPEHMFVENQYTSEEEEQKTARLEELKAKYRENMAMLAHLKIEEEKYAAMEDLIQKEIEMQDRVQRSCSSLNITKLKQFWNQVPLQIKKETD", "T2 sequence (looked up) 2": "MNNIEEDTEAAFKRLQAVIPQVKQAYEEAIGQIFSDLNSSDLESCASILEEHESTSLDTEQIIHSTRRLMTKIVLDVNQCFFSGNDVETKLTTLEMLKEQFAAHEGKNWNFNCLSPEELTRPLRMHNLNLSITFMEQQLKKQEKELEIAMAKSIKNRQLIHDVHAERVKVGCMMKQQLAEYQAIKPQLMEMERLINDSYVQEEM", "T2 sequence (looked up) 3": "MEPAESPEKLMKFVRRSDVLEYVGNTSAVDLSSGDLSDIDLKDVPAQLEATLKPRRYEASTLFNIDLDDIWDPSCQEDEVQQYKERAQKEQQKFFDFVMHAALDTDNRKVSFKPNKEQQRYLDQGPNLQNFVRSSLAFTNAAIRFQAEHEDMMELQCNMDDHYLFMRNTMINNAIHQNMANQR"}, "[3]": {"biological_target": "T3, Mis12a:Spc105R^1707–1960 complex (Drosophila melanogaster, UniProt Q9VS01 1-181; Q7JZC9 1-194; Q9VYX4 1-183; M9PIC9 1707-1960)", "T3 construct": "Mis12 subunit of the Drosophila melanogaster Mis12 complex; Nnf1a (Nnf1R-1), Drosophila melanogaster; Kmn1, the Nsl1 orthologue of Drosophila melanogaster; source: E. coli BL21(DE3) Rosetta, co-expressed (pST44), purified (His-Trap, ResourceQ, Superdex 200); copies: 1 + 1 + 1 + 1", "T3 sequence (looked up) 1": "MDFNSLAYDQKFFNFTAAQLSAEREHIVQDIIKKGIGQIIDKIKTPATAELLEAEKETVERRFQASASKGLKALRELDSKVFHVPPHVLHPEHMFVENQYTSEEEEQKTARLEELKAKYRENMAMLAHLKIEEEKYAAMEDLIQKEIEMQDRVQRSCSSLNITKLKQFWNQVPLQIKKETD", "T3 sequence (looked up) 2": "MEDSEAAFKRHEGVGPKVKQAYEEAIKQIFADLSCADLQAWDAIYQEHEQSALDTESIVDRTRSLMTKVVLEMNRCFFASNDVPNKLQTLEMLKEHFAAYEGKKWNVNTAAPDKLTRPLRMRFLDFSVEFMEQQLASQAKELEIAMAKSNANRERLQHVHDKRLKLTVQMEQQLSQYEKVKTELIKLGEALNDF", "T3 sequence (looked up) 3": "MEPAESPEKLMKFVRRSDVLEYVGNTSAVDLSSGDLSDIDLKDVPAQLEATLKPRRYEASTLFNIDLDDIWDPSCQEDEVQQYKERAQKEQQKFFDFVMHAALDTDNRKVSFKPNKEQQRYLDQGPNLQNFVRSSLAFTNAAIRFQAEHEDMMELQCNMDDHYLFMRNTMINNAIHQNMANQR", "T3 sequence (looked up) 4": "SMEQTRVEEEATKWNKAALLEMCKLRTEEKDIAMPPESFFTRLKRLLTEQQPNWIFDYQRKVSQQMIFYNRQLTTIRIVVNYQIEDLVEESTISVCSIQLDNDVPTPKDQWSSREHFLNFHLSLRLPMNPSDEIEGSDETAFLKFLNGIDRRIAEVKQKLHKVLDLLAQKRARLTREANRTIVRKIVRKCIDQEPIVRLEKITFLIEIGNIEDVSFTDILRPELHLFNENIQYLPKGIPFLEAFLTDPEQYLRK"}}}
{"binder": "B1", "values": [{"measurement": "stoichiometry N", "setting": "[1]", "result": 1}, {"measurement": "stoichiometry N", "setting": "[2]", "result": 1}]}
{"binder": "B2", "values": [{"measurement": "stoichiometry N", "setting": "[1]", "result": 1}, {"measurement": "stoichiometry N", "setting": "[3]", "result": 1}]}
